# The supplement of paper PMC5998384
# What was measured:
# HeLa Kyoto [1] = assay: solubility in G1/S (NP-40 vs SDS abundance) (log2 ratio); higher = more soluble; conditions: cell cycle stage: G1/S
# HeLa Kyoto [2] = assay: thermal stability score vs G1/S (z-score of summed log2 fold changes over temperatures); higher = more thermally stable than in G1/S
# HeLa Kyoto [3] = assay: solubility change mitosis vs G1/S (difference of NP-40 vs SDS log2 ratios) (log2 ratio difference); higher = more soluble in mitosis
# HeLa Kyoto [4] = assay: melting temperature (median over replicates), in situ; higher = more thermally stable
# [5] = cell cycle stage: early G1 (4.5 h after nocodazole release)
# 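For melting temperature (median over replicates), in situ in this document: HeLa Kyoto cells synchronized by double thymidine or nocodazole block, proteins quantified by TMT10plex mass spectrometry, three independent biological replicates.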
# 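For solubility change mitosis vs G1/S (difference of NP-40 vs SDS log2 ratios) in this document: synchronized HeLa Kyoto cells (double thymidine block for G1/S, nocodazole release for mitosis), protein amounts in NP-40 versus SDS lysates quantified by mass spectrometry, three biological replicates.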
# 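For solubility in G1/S (NP-40 vs SDS abundance) in this document: HeLa Kyoto cells arrested at G1/S by double thymidine block, proteins quantified by TMT10plex mass spectrometry in mild NP-40 versus SDS extracts, three biological replicates.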
# 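For thermal stability score vs G1/S (z-score of summed log2 fold changes over temperatures) in this document: synchronized HeLa Kyoto cells, proteins quantified by TMT10plex mass spectrometry, three biological replicates, mitosis taken 0.5 h after nocodazole release, G1/S directly after double thymidine block.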
Sequence,solubility in G1/S (log2) (HeLa Kyoto [1]),thermal stability score (HeLa Kyoto [2]; [5]),thermal stability score (HeLa Kyoto [2]; cell cycle stage: mitosis),solubility change mitosis (log2) (HeLa Kyoto [3]),melting temperature (HeLa Kyoto [4]; cell cycle stage: G1/S),melting temperature (HeLa Kyoto [4]; cell cycle stage: mitosis)
MEGGLADGEPDRTSLLGDSKDVLGPSTVVANSDESQLLTPGKMSQRQGKEAYPTPTKDLHQPSLSPASPHSQGFERGKEDISQNKDESSLSMSKSKSESKLYNGSEKDSSTSSKLTKKESLKVQKKNYREEKKRATKELLSTITDPSVIVMADWLKIRGTLKSWTKLWCVLKPGVLLIYKTQKNGQWVGTVLLNACEIIERPSKKDGFCFKLFHPLEQSIWAVKGPKGEAVGSITQPLPSSYLIIRATSESDGRCWMDALELALKCSSLLKRTMIREGKEHDLSVSSDSTHVTFYGLLRANNLHSGDNFQLNDSEIERQHFKDQDMYSDKSDKENDQEHDESDNEVMGKSEESDTDTSERQDDSYIEPEPVEPLKETTYTEQSHEELGEAGEASQTETVSEENKSLIWTLLKQVRPGMDLSKVVLPTFILEPRSFLDKLSDYYYHADFLSEAALEENPYFRLKKVVKWYLSGFYKKPKGLKKPYNPILGETFRCLWIHPRTNSKTFYIAEQVSHHPPISAFYVSNRKDGFCLSGSILAKSKFYGNSLSAILEGEARLTFLNRGEDYVMTMPYAHCKGILYGTMTLELGGTVNITCQKTGYSAILEFKLKPFLGSSDCVNQISGKLKLGKEVLATLEGHWDSEVFITDKKTDNSEVFWNPTPDIKQWRLIRHTVKFEEQGDFESEKLWQRVTRAINAKDQTEATQEKYVLEEAQRQAARDRKTKNEEWSCKLFELDPLTGEWHYKFADTRPWDPLNDMIQFEKDGVIQTKVKHRTPMVSVPKMKHKPTRQQKKVAKGYSSPEPDIQDSSGSEAQSVKPSTRRKKGIELGDIQSSIESIKQTQEEIKRNIMALRNHLVSSTPATDYFLQQKDYFIIFLLILLQVIINFMFK [OSBPL8],-0.118,0.167,0.896,-0.172,49.8 °C,50.9 °C
MEGLTLSDAEQKYYSDLFSYCDIESTKKVVVNGRVLELFRAAQLPNDVVLQIMELCGATRLGYFGRSQFYIALKLVAVAQSGFPLRVESINTVKDLPLPRFVASKNEQESRHAASYSSDSENQGSYSGVIPPPPGRGQVKKGSVSHDTVQPRTSADAQEPASPVVSPQQSPPTSPHTWRKHSRHPSGGNSERPLAGPGPFWSPFGEAQSGSSAGDAVWSGHSPPPPQENWVSFADTPPTSTLLTMHPASVQDQTTVRTVASATTAIEIRRQSSSYDDPWKITDEQRQYYVNQFKTIQPDLNGFIPGSAAKEFFTKSKLPILELSHIWELSDFDKDGALTLDEFCAAFHLVVARKNGYDLPEKLPESLMPKLIDLEDSADVGDQPGEVGYSGSPAEAPPSKSPSMPSLNQTWPELNQSSEQWETFSERSSSSQTLTQFDSNIAPADPDTAIVHPVPIRMTPSKIHMQEMELKRTGSDHTNPTSPLLVKPSDLLEENKINSSVKFASGNTVADGYSSSDSFTSDPEQIGSNVTRQRSHSGTSPDNTAPPPPPPRPQPSHSRSSSLDMNRTFTVTTGQQQAGVVAHPPAVPPRPQPSQAPGPAVHRPVDADGLITHTSTSPQQIPEQPNFADFSQFEVFAASNVNDEQDDEAEKHPEVLPAEKASDPASSLRVAKTDSKTEEKTAASAPANVSKGTTPLAPPPKPVRRRLKSEDELRPEVDEHTQKTGVLAAVLASQPSIPRSVGKDKKAIQASIRRNKETNTVLARLNSELQQQLKDVLEERISLEVQLEQLRPFSHL [REPS1],0.0849,0.407,0.261,-0.0971,48.8 °C,49.8 °C
MEGLVVAAGGDVSLHNFSARLWEQLVHFHVMRLTDSLFLWVGATPHLRNLAVAMCSRYDSIPVSTSLLGDTSDTTSTGLAQRLARKTNKQVFVSYNLQNTDSNFALLVENRIKEEMEAFPEKF [PSMG4],0.14,-0.165,-2.02,-0.0112,57.5 °C,54.1 °C
MEGNRDEAEKCVEIAREALNAGNREKAQRFLQKAEKLYPLPSARALLEIIMKNGSTAGNSPHCRKPSGSGDQSKPNCTKDSTSGSGEGGKGYTKDQVDGVLSINKCKNYYEVLGVTKDAGDEDLKKAYRKLALKFHPDKNHAPGATDAFKKIGNAYAVLSNPEKRKQYDLTGNEEQACNHQNNGRFNFHRGCEADITPEDLFNIFFGGGFPSGSVHSFSNGRAGYSQQHQHRHSGHEREEERGDGGFSVFIQLMPIIVLILVSLLSQLMVSNPPYSLYPRSGTGQTIKMQTENLGVVYYVNKDFKNEYKGMLLQKVEKSVEEDYVTNIRNNCWKERQQKTDMQYAAKVYRDDRLRRKADALSMDNCKELERLTSLYKGG [DNAJB14],0.511,-1.51,0.131,-0.15,51.3 °C,51.9 °C
MEGSGEQPGPQPQHPGDHRIRDGDFVVLKREDVFKAVQVQRRKKVTFEKQWFYLDNVIGHSYGTAFEVTSGGSLQPKKKREEPTAETKEAGTDNRNIVDDGKSQKLTQDDIKALKDKGIKGEEIVQQLIENSTTFRDKTEFAQDKYIKKKKKKYEAIITVVKPSTRILSIMYYAREPGKINHMRYDTLAQMLTLGNIRAGNKMIVMETCAGLVLGAMMERMGGFGSIIQLYPGGGPVRAATACFGFPKSFLSGLYEFPLNKVDSLLHGTFSAKMLSSEPKDSALVEESNGTLEEKQASEQENEDSMAEAPESNHPEDQETMETISQDPEHKGPKERGSKKDYIQEKQRRQEEQRKRHLEAAALLSERNADGLIVASRFHPTPLLLSLLDFVAPSRPFVVYCQYKEPLLECYTKLRERGGVINLRLSETWLRNYQVLPDRSHPKLLMSGGGGYLLSGFTVAMDNLKADTSLKSNASTLESHETEEPAAKKRKCPESDS [TRMT6],0.0845,2.23,0.0663,0.019,54.9 °C,56.2 °C
MEIIRSNFKSNLHKVYQAIEEADFFAIDGEFSGISDGPSVSALTNGFDTPEERYQKLKKHSMDFLLFQFGLCTFKYDYTDSKYITKSFNFYVFPKPFNRSSPDVKFVCQSSSIDFLASQGFDFNKVFRNGIPYLNQEEERQLREQYDEKRSQANGAGALSYVSPNTSKCPVTIPEDQKKFIDQVVEKIEDLLQSEENKNLDLEPCTGFQRKLIYQTLSWKYPKGIHVETLETEKKERYIVISKVDEEERKRREQQKHAKEQEELNDAVGFSRVIHAIANSGKLVIGHNMLLDVMHTVHQFYCPLPADLSEFKEMTTCVFPRLLDTKLMASTQPFKDIINNTSLAELEKRLKETPFNPPKVESAEGFPSYDTASEQLHEAGYDAYITGLCFISMANYLGSFLSPPKIHVSARSKLIEPFFNKLFLMRVMDIPYLNLEGPDLQPKRDHVLHVTFPKEWKTSDLYQLFSAFGNIQISWIDDTSAFVSLSQPEQVKIAVNTSKYAESYRIQTYAEYMGRKQEEKQIKRKWTEDSWKEADSKRLNPQCIPYTLQNHYYRNNSFTAPSTVGKRNLSPSQEEAGLEDGVSGEISDTELEQTDSCAEPLSEGRKKAKKLKRMKKELSPAGSISKNSPATLFEVPDTW [PARN],-0.144,1.32,2.89,-0.0471,48.7 °C,50.7 °C
MEKARRGGDGVPRGPVLHIVVVGFHHKKGCQVEFSYPPLIPGDGHDSHTLPEEWKYLPFLALPDGAHNYQEDTVFFHLPPRNGNGATVFGISCYRQIEAKALKVRQADITRETVQKSVCVLSKLPLYGLLQAKLQLITHAYFEEKDFSQISILKELYEHMNSSLGGASLEGSQVYLGLSPRDLVLHFRHKVLILFKLILLEKKVLFYISPVNKLVGALMTVLSLFPGMIEHGLSDCSQYRPRKSMSEDGGLQESNPCADDFVSASTADVSHTNLGTIRKVMAGNHGEDAAMKTEEPLFQVEDSSKGQEPNDTNQYLKPPSRPSPDSSESDWETLDPSVLEDPNLKEREQLGSDQTNLFPKDSVPSESLPITVQPQANTGQVVLIPGLISGLEEDQYGMPLAIFTKGYLCLPYMALQQHHLLSDVTVRGFVAGATNILFRQQKHLSDAIVEVEEALIQIHDPELRKLLNPTTADLRFADYLVRHVTENRDDVFLDGTGWEGGDEWIRAQFAVYIHALLAATLQLDNEKILSDYGTTFVTAWKNTHNYRVWNSNKHPALAEINPNHPFQGQYSVSDMKLRFSHSVQNSERGKKIGNVMVTTSRNVVQTGKAVGQSVGGAFSSAKTAMSSWLSTFTTSTSQSLTEPPDEKP [AVL9],0.0785,0.365,0.676,-0.155,54.3 °C,54.1 °C
MEKGLTLPQDCRDFVHSLKMRSKYALFLVFVVIVFVFIEKENKIISRVSDKLKQIPQALADANSTDPALILAENASLLSLSELDSAFSQLQSRLRNLSLQLGVEPAMEAAGEEEEEQRKEEEPPRPAVAGPRRHVLLMATTRTGSSFVGEFFNQQGNIFYLFEPLWHIERTVSFEPGGANAAGSALVYRDVLKQLFLCDLYVLEHFITPLPEDHLTQFMFRRGSSRSLCEDPVCTPFVKKVFEKYHCKNRRCGPLNVTLAAEACRRKEHMALKAVRIRQLEFLQPLAEDPRLDLRVIQLVRDPRAVLASRMVAFAGKYKTWKKWLDDEGQDGLREEEVQRLRGNCESIRLSAELGLRQPAWLRGRYMLVRYEDVARGPLQKAREMYRFAGIPLTPQVEDWIQKNTQAAHDGSGIYSTQKNSSEQFEKWRFSMPFKLAQVVQAACGPAMRLFGYKLARDAAALTNRSVSLLEERGTFWVT [CHST3],0.15,-1.54,-0.213,-0.0403,55.3 °C,53.5 °C
MEKRLGVKPNPASWILSGYYWQTSAKWLRSLYLFYTCFCFSVLWLSTDASESRCQQGKTQFGVGLRSGGENHLWLLEGTPSLQSCWAACCQDSACHVFWWLEGMCIQADCSRPQSCRAFRTHSSNSMLVFLKKFQTADDLGFLPEDDVPHLLGLGWNWASWRQSPPRAALRPAVSSSDQQSLIRKLQKRGSPSDVVTPIVTQHSKVNDSNELGGLTTSGSAEVHKAITISSPLTTDLTAELSGGPKNVSVQPEISEGLATTPSTQQVKSSEKTQIAVPQPVAPSYSYATPTPQASFQSTSAPYPVIKELVVSAGESVQITLPKNEVQLNAYVLQEPPKGETYTYDWQLITHPRDYSGEMEGKHSQILKLSKLTPGLYEFKVIVEGQNAHGEGYVNVTVKPEPRKNRPPIAIVSPQFQEISLPTTSTVIDGSQSTDDDKIVQYHWEELKGPLREEKISEDTAILKLSKLVPGNYTFSLTVVDSDGATNSTTANLTVNKAVDYPPVANAGPNQVITLPQNSITLFGNQSTDDHGITSYEWSLSPSSKGKVVEMQGVRTPTLQLSAMQEGDYTYQLTVTDTIGQQATAQVTVIVQPENNKPPQADAGPDKELTLPVDSTTLDGSKSSDDQKIISYLWEKTQGPDGVQLENANSSVATVTGLQVGTYVFTLTVKDERNLQSQSSVNVIVKEEINKPPIAKITGNVVITLPTSTAELDGSKSSDDKGIVSYLWTRDEGSPAAGEVLNHSDHHPILFLSNLVEGTYTFHLKVTDAKGESDTDRTTVEVKPDPRKNNLVEIILDINVSQLTERLKGMFIRQIGVLLGVLDSDIIVQKIQPYTEQSTKMVFFVQNEPPHQIFKGHEVAAMLKSELRKQKADFLIFRALEVNTVTCQLNCSDHGHCDSFTKRCICDPFWMENFIKVQLRDGDSNCEWSVLYVIIATFVIVVALGILSWTVICCCKRQKGKPKRKSKYKILDATDQESLELKPTSRAGIKQKGLLLSSSLMHSESELDSDDAIFTWPDREKGKLLHGQNGSVPNGQTPLKARSPREEIL [KIAA0319L],0.0342,-3.99,-5.23,0.0841,58.5 °C,56.2 °C
MELALRRSPVPRWLLLLPLLLGLNAGAVIDWPTEEGKEVWDYVTVRKDAYMFWWLYYATNSCKNFSELPLVMWLQGGPGGSSTGFGNFEEIGPLDSDLKPRKTTWLQAASLLFVDNPVGTGFSYVNGSGAYAKDLAMVASDMMVLLKTFFSCHKEFQTVPFYIFSESYGGKMAAGIGLELYKAIQRGTIKCNFAGVALGDSWISPVDSVLSWGPYLYSMSLLEDKGLAEVSKVAEQVLNAVNKGLYREATELWGKAEMIIEQNTDGVNFYNILTKSTPTSTMESSLEFTQSHLVCLCQRHVRHLQRDALSQLMNGPIRKKLKIIPEDQSWGGQATNVFVNMEEDFMKPVISIVDELLEAGINVTVYNGQLDLIVDTMGQEAWVRKLKWPELPKFSQLKWKALYSDPKSLETSAFVKSYKNLAFYWILKAGHMVPSDQGDMALKMMRLVTQQE [SCPEP1],0.402,-2.33,-0.14,0.202,56.9 °C,55.6 °C
